# Tested on: MS2 coat protein
# Test: apparent KD of MS2 coat protein; higher = weaker reporter binding
# Conditions: Eterna round: R107
# Procedure: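 RNA-MaP round R107: designed RNA switches with theophylline, tryptophan, arginine or FMN aptamers are transcribed on-chip within common flanks. They are titrated with SNAP-549-labelled MS2 coat protein in RNA-MaP buffer (100 mM Tris pH 7.5, 80 mM KCl, 4 mM MgCl2), without ligand or with the indicated ligand. Median apparent KD per design.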
# [1] = input ligand: theophylline 20 uM
# [2] = input ligand: tryptophan 2.4 mM
# [3] = input ligand: theophylline 2 mM
Sequence,apparent KD of MS2 coat protein (input ligand: arginine 13.2 mM),apparent KD of MS2 coat protein [1],apparent KD of MS2 coat protein [2],apparent KD of MS2 coat protein [3],apparent KD of MS2 coat protein (input ligand: none)
GAAGCUCGCGAUGAUACCAGCUCGACUGAUAACAUGAGGAUCACCCAUGUUGUGCGCCCUAGCCCUUGGCAGCAUGACAUAUUCG [theeternabot_sameState_MS2_Theo_B_46],47.5 nM,126 nM,97.8 nM,,
UCGCAUUGCUGCGAUACCAGACAUGAGGAUCACCCAUGUACCAAGAAAACGUACAUAAAUGUCCCUUGGCAGCGCAGCAAUGCGU [MAT - Exclusion Theophlline B - Mod of Eli - D26],148 nM,656 nM,631 nM,,
GCGUGGUCUGCGGCCGCCACUCAAGGAGCUACAUAGCUCCUAGACAUGAGGAUCACCCAUGUCGCGAGGACCGGGUAGAUUCUCC [Same State Typptophan B GF10],40.2 nM,134 nM,,120 nM,
AACAUGAGGAUCACCCAUGUCCCAUGUGAACGAGGACCGGUACGGCCGCCACUCGACUGAGGCGGCACAUGAGGAUCACCCACAU [whbob_SS_trypto A_2s12],151 nM,207 nM,,269 nM,
UGGCAAGAGGGAAGGAGCGUCAGCUGAGUCACAUGAGGAUCACCCAUGUCGCACAUAGUGUGACAGGUAGGUCGCCCUCUGCCGU [Vesosocera],70 nM,152 nM,122 nM,207 nM,122 nM
AAGGGACAUGAGGAUCACCCAUGUACCGAAGGAGCGGCAGAGAUGCCAGGUAGGUCGCGGUACUUGCCGGGUCAUUCAUGCAAAA [Teanbe],16.4 nM,23.5 nM,21.8 nM,21.9 nM,18.8 nM
GGCCAUGGAAACAUGGCGGCGGCGUAUGCGCGAGGACCGGUACGGCCGCCACUCGGGCGACAUGAGGAUCACCCAUGUUCCUCAU [ETA NP+V+V2 #25],127 nM,243 nM,,275 nM,
AUUAACUGGUAAGAUACCAGAGUCGGGAUCUACAUGAGGAUCACCCAUGUUCUAAAGUCGCUCCCUUGGCAGCUUCAAUGAGUCG [theeternabot_sameState_MS2_Theo_B_27],23.3 nM,45.9 nM,34 nM,,
CCUAUGCAGUCGGCCGCCACUGAACAUGAGGAUCACCCAUGUAAUUAAAAUUAAGAUCCUGAAAUCAGGACCGGGACUGUAUAGG [Ex Tryptophan B 4],25.5 nM,280 nM,196 nM,140 nM,1520 nM
GGCGCGAGCCAACAUGAGGAUCACCCAUGUCGAGGACCGGUACGGCCGCCACUCGAACGAGUGAAGCGCGCGCGCGCGCGCGCGC [Uaa],32.4 nM,106 nM,167 nM,68.8 nM,61.5 nM
AACAUGAGGAUCUUCCUUAAGUGAACUGAAGGAGCGCCAGAUAUGGCAGGUAGGUCGCAGCGAACAUGAGGAUCACCCAUGUUAA [Arg A Ex t3],38.1 nM,33.1 nM,53.7 nM,56 nM,29.4 nM
UUUGAUAGGACAGAUACCAGCGUGUUAUAAAACAUGAGGAUCACCCAUGUAGUGAUCAAGCGCCCUUGGCAGCUGGUUUGUUAGG [7.J],73.5 nM,220 nM,207 nM,,
CAGAGCUACCGGGAUACCAGAAAUGGUAUUCCUUAAUUUCUUACAUGAGGAUCACCCAUGUUCCCUUGGCAGCUUGGUAGCUCUG [ETHB #8],48.6 nM,107 nM,83.7 nM,,
GAUGAACUAUAUGAUACCAGACAACAUGAGGAUCACCCAUGUGAAAGUCGUCCUCUGCCUGUCCCUUGGCAGCGUAUAGUUUAUC [XTheo B #14],61.1 nM,76.1 nM,28.4 nM,,
GGUUAGGUUUUUGAUACCAGCUAUUGGUGUCAUCUGAGGAUCACCCAGGUCUUGUGUUUUAGCCCUUGGCAGCAAAAGUUUAGUC [SSTheo B #28],72.6 nM,118 nM,108 nM,94.1 nM,88.4 nM
AGCUCGCAUCCUCAAAGCGUCAAAGACGCACGAGGACCGGUACGGCCGCCACUCGACCUGAGGAUCACCCUGGUCUAAGCGAGCA [TrypAX 9 #SwitchBubble #AlternativeMS2 #MS2Late #CuTurnoff],29.7 nM,49.2 nM,381 nM,48.8 nM,36.2 nM
GGUUGGUGUAGAGAUAUAUUGAUUACUGAAGGAGCGGGACGAAACCCAGGUAGGUCGCAGAGAUCCACAUGAGGAUCACCCAUGU [!0.M],31.6 nM,46.6 nM,33.4 nM,61.4 nM,46.1 nM
AAACGUUGCUGCGAUACCAGACAUGAGGAUCACCCAUGUACCAAGGUACGAAAAUAACAUGUCCCUUGGCAGCGCAGCAACGAAA [MAT - Exclusion Theophlline B - Mod of Eli - D6],15.7 nM,29.7 nM,14.5 nM,,
UGGGUUGGACCAGGAAAUGGUCUGACUCACCGAGGACCGGUACGGCCGCCACUCGUAGGUACAUGAGGAUCACCCAUGUCGGUGG [#1 Same State - Tryptophan A Attempt #11 (HarryS)],91.7 nM,34.2 nM,68.8 nM,36.2 nM,23.6 nM
CCAGCCCUUCUAGAUACCAGCUUUCAAUAUAAGACAACUCACAUGAGGAUCACCCAUGUUAGCCCUUGGCAGCUAAGAUCCACAA [theeternabot_exclusion_MS2_Theo_B_32],46.6 nM,67 nM,48.5 nM,,
CAAUAUAUAACGGCCGCCACUUACUCAUGAGGUAACAACAUGAGGAUCACCCAUGUUUGAGGAUCAAGGACCGGGUUAUAUAUUG [AstrosSSTry#19],29.3 nM,33 nM,18.4 nM,27.1 nM,28 nM
GAUAUAUACUCGGCCGCCACUGAGAGAGUCAUGUAAACAUGAGGAUCACCCAUGUAAUAUAUAUACAGGACCGGGAGUAUAUUAA [4.C],16 nM,16.1 nM,,14 nM,
AACAGUUGGUCGGCCGCCACUACAUGAGGAUCACCCAUGUAGCGCGUUCUGCUCCAGGGCUCAUCUAGGACCGGGACACGAGUGU [Raa],12.2 nM,21.4 nM,,14.5 nM,
CUCCCACUAUCUGAUACCAGAGGAUAAACGUAGACUGGGAACAUGAGGAUCACCCAUGUCCUCCCUUGGCAGCAGGACUUAUCUC [theeternabot_exclusion_MS2_Theo_B_29],22.2 nM,29.9 nM,22.2 nM,,
GGAGCUACGUCGGCCGCCACUAGCGGAUAUUACGUGUACAUGAGGAUCACCCAUGUAAUACGGUUUAGGACCGGGACGUAGCUCC [Lizard],15.6 nM,22.4 nM,,20.6 nM,
AUCCUUAAUAGGGUAAAUGGAUAAAGUGAUACCAGUCAAAUACAAGACCCUUGGCAGCACAAGGACAUGAGGAUCACCCAUGUCA [Same State Theophylline A GF21],20.9 nM,22 nM,21.6 nM,,
AGCACUGUGACGGCCGCCACUAUAUUAGGGUGGUAAGGUUCAUAAAUACAUGAGGAUCACCCAUGUAGGACCGGGUCUCAGUGCA [Omei Trp Exc B A v2],11.8 nM,11 nM,17.1 nM,13.5 nM,12.6 nM
UAAAUAUUACUGGGUAAGGUAUAAAUAGAUACCAGCCAGAUAACUGGCCCUUGGCAGCUAAACAUGAGGAUCACCCAUGUAUAAU [TheoAS 20 #OpenEnded #Ms2Late],23.5 nM,44 nM,33.2 nM,,
GCACAAGAUGGAAGGAGCGCUGGAAAAGGUCACAUGAGGAUCACCCAUGUUCUCCGAACCGAGCAGGUAGGUCGCUAUCUUGUGC [#09 Same State - Arginine B],37.5 nM,59.9 nM,41.7 nM,50.7 nM,41.9 nM

# Reference: the supplement of paper PMC9170038
